Assays:
[1] = molecular target: T1, Human CD47-C33G (human, UniProt Q08722 19-135); experiment: SPR, IgG captured, CD47 in flow; exp 1;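 also: biacore T200 SPR using IgG from supernatants of transfected HEK293 cells, rate constants fitted to association and dissociation curves, Kd derived from koff over kon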
T1 construct: also called CD47 mutein with C33G mutation

[2] = molecular target: T2, wild type human CD47 (Acro Biosystems, cat. no. CD7-H5227) (human, UniProt Q08722 19-139); experiment: SPR, IgG captured, CD47 in flow; exp 1;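 also: biacore T200 SPR using IgG from supernatants of transfected HEK293 cells, rate constants fitted to association and dissociation curves, Kd derived from koff over kon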
T2 construct: Bought protein used as SPR analyte; also called Human CD47 wt; wild-type CD47
T2 sequence (Q08722 19-139 limits assumed): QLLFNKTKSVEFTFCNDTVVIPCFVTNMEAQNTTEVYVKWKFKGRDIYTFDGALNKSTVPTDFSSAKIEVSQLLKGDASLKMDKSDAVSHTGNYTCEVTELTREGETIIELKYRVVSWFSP

[3] = molecular target: T1, Human CD47-C33G; experiment: SPR, IgG captured, CD47 in flow; exp 2;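 also: IgG from HEK293 cell supernatants tested by SPR on a BIAcore T200, C33G mutein prevents IgV homodimers for monovalent affinity, KD derived from association and dissociation rates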
[4] = molecular target: T2, wild type human CD47 (Acro Biosystems, …); experiment: SPR, IgG captured, CD47 in flow; exp 2;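 also: IgG from HEK293 cell supernatants tested by SPR on a BIAcore T200, C33G mutein prevents IgV homodimers for monovalent affinity, KD derived from association and dissociation rates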
[5] = molecular target: T1, Human CD47-C33G; experiment: SPR, IgG captured, CD47 in flow; exp 3;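 also: biacore T200 SPR with antibodies taken from supernatants of transfected HEK293 cells, C33G mutein avoiding IgV homodimers for monovalent affinity, Kd derived from association and dissociation rate constants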
[6] = molecular target: T2, wild type human CD47 (Acro Biosystems, …); experiment: SPR, IgG captured, CD47 in flow; exp 3;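 also: biacore T200 SPR with antibodies taken from supernatants of transfected HEK293 cells, C33G mutein avoiding IgV homodimers for monovalent affinity, Kd derived from association and dissociation rate constants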

T1 sequence (Q08722 19-135 C33G limits assumed): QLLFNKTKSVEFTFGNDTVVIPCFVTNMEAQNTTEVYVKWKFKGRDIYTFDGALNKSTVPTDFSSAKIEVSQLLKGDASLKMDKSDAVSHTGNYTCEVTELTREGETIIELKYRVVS

Binder	Kd [1]	koff [1]	kon [1]	Kd [2]	koff [2]	kon [2]	Kd [3]	koff [3]	kon [3]	Kd [4]	koff [4]	kon [4]	Kd [5]	koff [5]	kon [5]	Kd [6]	koff [6]	kon [6]
108VH5 / 108VL1.M5 (antibody, human IgG4 S228P, kappa, V domains shown, Full-length IgG4 (S228P), kappa; also called VH5 VL1.M5) VH: EVQLVQSGAEVKKPGASVKVSCKASGYSFTHHWIHWVRQAPGQGLEWMGMIDPSDSETRLSQKFKDRVTMTRDTSTSTVYMELSSLRSEDTAVYYCARLGRYYFDYWGQGTLVTVSS VL: EIVLTQSPATLSLSPGERATLSCRASQSVSSYLAWYQQKPGQAPRLLIYGASNRATGIPARFSGSGSGTDFTLTISSLEPEDFAVYYCGESYGHLYTFGGGTKVEIKR	3.4 nM	0.0012 s⁻¹	340000 M⁻¹ s⁻¹	0.83 nM	0.00065 s⁻¹	780000 M⁻¹ s⁻¹	3.9 nM	0.0012 s⁻¹	310000 M⁻¹ s⁻¹	0.82 nM	0.00059 s⁻¹	720000 M⁻¹ s⁻¹						
108VH5.M10 / 108VL1.M5 (antibody, human IgG4 S228P, kappa, V domains shown, Full-length IgG4 (S228P), kappa; also called VH5.M10 VL1.M5) VH: EVQLVQSGAEVKKPGASVKVSCKASGYTFTHHWIHWVRQAPGQGLEWMGMIDASDSETRYAQKFQGRVTMTRDTSTSTVYMELSSLRSEDTAVYYCARLGRYYFDYWGQGTLVTVSS VL: EIVLTQSPATLSLSPGERATLSCRASQSVSSYLAWYQQKPGQAPRLLIYGASNRATGIPARFSGSGSGTDFTLTISSLEPEDFAVYYCGESYGHLYTFGGGTKVEIKR							16 nM	0.004 s⁻¹	250000 M⁻¹ s⁻¹	2.8 nM	0.0019 s⁻¹	660000 M⁻¹ s⁻¹						
108VH5.M12 / 108VL1.M5 (antibody, human IgG4 S228P, kappa, V domains shown, Full-length IgG4 (S228P), kappa; also called VH5.M12 VL1.M5) VH: EVQLVQSGAEVKKPGASVKVSCKASGYTFTHHWMHWVRQAPGQGLEWMGMIDASDSETRYAQKFQGRVTMTRDTSTSTVYMELSSLRSEDTAVYYCARLGRYYFDYWGQGTLVTVSS VL: EIVLTQSPATLSLSPGERATLSCRASQSVSSYLAWYQQKPGQAPRLLIYGASNRATGIPARFSGSGSGTDFTLTISSLEPEDFAVYYCGESYGHLYTFGGGTKVEIKR							15 nM	0.0041 s⁻¹	280000 M⁻¹ s⁻¹	2.7 nM	0.002 s⁻¹	730000 M⁻¹ s⁻¹						
108VH5.M14 / 108VL1.M5 (antibody, human IgG4 S228P, kappa, V domains shown, Full-length IgG4 (S228P), kappa; also called VH5.M14 VL1.M5) VH: EVQLVQSGAEVKKPGASVKVSCKASGYTFTHHWIHWVRQAPGQGLEWMGMIDASDGETRYAQKFQGRVTMTRDTSTSTVYMELSSLRSEDTAVYYCARLGRYYFDYWGQGTLVTVSS VL: EIVLTQSPATLSLSPGERATLSCRASQSVSSYLAWYQQKPGQAPRLLIYGASNRATGIPARFSGSGSGTDFTLTISSLEPEDFAVYYCGESYGHLYTFGGGTKVEIKR							14 nM	0.0037 s⁻¹	260000 M⁻¹ s⁻¹	2.6 nM	0.0018 s⁻¹	690000 M⁻¹ s⁻¹						
108VH5.M17 / 108VL1.M5 (antibody, human IgG4 S228P, kappa, V domains shown, Full-length IgG4 (S228P), kappa; also called VH5.M17 VL1.M5) VH: EVQLVQSGAEVKKPGASVKVSCKASGYTFTHHWMHWVRQAPGQGLEWMGMIDASEGETRYAQKFQGRVTMTRDTSTSTVYMELSSLRSEDTAVYYCARLGRYYFDYWGQGTLVTVSS VL: EIVLTQSPATLSLSPGERATLSCRASQSVSSYLAWYQQKPGQAPRLLIYGASNRATGIPARFSGSGSGTDFTLTISSLEPEDFAVYYCGESYGHLYTFGGGTKVEIKR													1300 nM	0.084 s⁻¹	64000 M⁻¹ s⁻¹	18 nM	0.0084 s⁻¹	460000 M⁻¹ s⁻¹

From patent US20260132197A1 (NANJING LEGEND BIOTECH, published 2026)
